Measurements reported in PMC9482650, “Quantitative fragmentomics allow affinity mapping of interactomes” (Nature Communications, 2022).

T1: DFNB31_1, Q9P202
T1 sequence (Q9P202 135-233, limits assumed, looked up): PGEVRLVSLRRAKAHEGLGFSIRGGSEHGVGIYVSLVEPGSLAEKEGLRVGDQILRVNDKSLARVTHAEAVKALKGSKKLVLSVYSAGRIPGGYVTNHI

T2: DFNB31_2, Q9P202
T2 sequence (Q9P202 274-371, limits assumed, looked up): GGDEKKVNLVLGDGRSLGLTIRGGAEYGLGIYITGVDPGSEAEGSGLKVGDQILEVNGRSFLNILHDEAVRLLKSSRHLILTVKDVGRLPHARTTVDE

T3: DLG3_3, Q92796
T3 sequence (Q92796 374-475, limits assumed, looked up): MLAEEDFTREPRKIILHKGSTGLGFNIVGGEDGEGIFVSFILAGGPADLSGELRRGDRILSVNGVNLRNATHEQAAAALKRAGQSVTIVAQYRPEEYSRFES

T4: DVL3, Q92997
T4 sequence (Q92997 244-331, limits assumed, looked up): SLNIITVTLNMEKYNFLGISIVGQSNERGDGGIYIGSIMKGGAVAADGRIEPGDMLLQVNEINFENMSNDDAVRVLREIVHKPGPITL

T5: HTRA4, P83105
T5 sequence (P83105 378-476, limits assumed, looked up): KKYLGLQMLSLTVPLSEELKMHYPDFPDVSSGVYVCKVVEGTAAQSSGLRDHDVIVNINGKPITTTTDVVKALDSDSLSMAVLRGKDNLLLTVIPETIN

T6: LIN7B, Q9HAP6
T6 sequence (Q9HAP6 88-185, limits assumed, looked up): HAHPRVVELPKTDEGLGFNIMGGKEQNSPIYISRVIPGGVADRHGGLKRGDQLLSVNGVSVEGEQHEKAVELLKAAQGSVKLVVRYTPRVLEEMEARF

T7: MPDZ_10, O75970
T7 sequence (O75970 1624-1722, limits assumed, looked up): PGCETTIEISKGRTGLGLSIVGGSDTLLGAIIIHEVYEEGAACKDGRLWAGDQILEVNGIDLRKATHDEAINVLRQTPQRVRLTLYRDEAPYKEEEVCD

T8: NHERF3_1, Q5T2W1
T8 sequence (Q5T2W1 4-100, limits assumed, looked up): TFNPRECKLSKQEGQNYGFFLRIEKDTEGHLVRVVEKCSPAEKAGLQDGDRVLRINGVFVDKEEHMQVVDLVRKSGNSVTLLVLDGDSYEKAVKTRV

T9: RAPGEF6, Q8TEU7
T9 sequence (Q8TEU7 525-625, limits assumed, looked up): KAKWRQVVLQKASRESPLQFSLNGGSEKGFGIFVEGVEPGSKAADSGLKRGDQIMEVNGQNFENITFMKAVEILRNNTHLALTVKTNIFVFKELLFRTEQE

T10: SNTA1, Q13424
T10 sequence (Q13424 82-180, limits assumed, looked up): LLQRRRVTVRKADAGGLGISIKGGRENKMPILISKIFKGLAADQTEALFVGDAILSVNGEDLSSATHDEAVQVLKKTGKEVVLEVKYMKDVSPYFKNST

T11: SNTG1, Q9NSN8
T11 sequence (Q9NSN8 52-150, limits assumed, looked up): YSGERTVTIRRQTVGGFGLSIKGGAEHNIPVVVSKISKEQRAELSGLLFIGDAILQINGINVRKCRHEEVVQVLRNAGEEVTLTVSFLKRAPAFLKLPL

T12: SNTG2, Q9NY99
T12 sequence (Q9NY99 68-166, limits assumed, looked up): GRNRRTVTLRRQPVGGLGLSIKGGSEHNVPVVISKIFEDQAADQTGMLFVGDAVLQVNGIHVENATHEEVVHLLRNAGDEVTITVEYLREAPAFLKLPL

T13: TIAM2, Q8IVF5
T13 sequence (Q8IVF5 885-986, limits assumed, looked up): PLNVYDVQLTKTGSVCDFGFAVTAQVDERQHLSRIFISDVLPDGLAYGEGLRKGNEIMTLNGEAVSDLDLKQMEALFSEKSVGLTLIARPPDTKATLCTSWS


Target: T1, DFNB31_1, Q9P202
Assay: holdup assay
Set-up: key: below the threshold = too weak to quantify, mostly under pKd 3.1 to 4
Conditions: plain residues with an end cap or a label only (N-terminal biotin on a linker: ado-ado)

pKd | Binder
below the threshold | PAALPESTHM [SLC9A3, P48764]

Target: T2, DFNB31_2, Q9P202
Assay: holdup assay
Set-up: key: below the threshold = too weak to quantify, mostly under pKd 3.1 to 4
Conditions: plain residues with an end cap or a label only (N-terminal biotin on a linker: ado-ado)

pKd | Binder
below the threshold | PAALPESTHM [SLC9A3, P48764]

Target: T3, DLG3_3, Q92796
Assay: holdup assay
Set-up: key: below the threshold = too weak to quantify, mostly under pKd 3.1 to 4
Conditions: plain residues with an end cap or a label only (N-terminal biotin on a linker: ado-ado)

pKd | Binder
below the threshold | PAALPESTHM [SLC9A3, P48764]

Target: DLG5_1, Q8TDM6
Sequence (Q8TDM6 617-713): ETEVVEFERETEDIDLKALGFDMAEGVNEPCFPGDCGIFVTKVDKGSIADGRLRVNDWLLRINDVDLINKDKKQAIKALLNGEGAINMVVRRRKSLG
Assay: holdup assay
Set-up: key: below the threshold = too weak to quantify, mostly under pKd 3.1 to 4
Conditions: plain residues with an end cap or a label only (N-terminal biotin on a linker: ado-ado)

pKd | Binder
below the threshold | PAALPESTHM [SLC9A3, P48764]

Target: T4, DVL3, Q92997
Assay: holdup assay
Set-up: key: below the threshold = too weak to quantify, mostly under pKd 3.1 to 4
Conditions: plain residues with an end cap or a label only (N-terminal biotin on a linker: ado-ado)

pKd | Binder
below the threshold | PAALPESTHM [SLC9A3, P48764]

Target: FRMPD2_3, Q68DX3
Sequence (Q68DX3 1073-1166): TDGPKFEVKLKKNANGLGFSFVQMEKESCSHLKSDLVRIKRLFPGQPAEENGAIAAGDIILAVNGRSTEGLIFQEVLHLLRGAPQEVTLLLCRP
Assay: holdup assay
Set-up: key: below the threshold = too weak to quantify, mostly under pKd 3.1 to 4
Conditions: plain residues with an end cap or a label only (N-terminal biotin on a linker: ado-ado)

pKd | Binder
below the threshold | PAALPESTHM [SLC9A3, P48764]

Target: GORASP2, Q9H8Y8
Assay: holdup assay
Set-up: key: below the threshold = too weak to quantify, mostly under pKd 3.1 to 4
Conditions: plain residues with an end cap or a label only (N-terminal biotin on a linker: ado-ado)

pKd | Binder
below the threshold | PAALPESTHM [SLC9A3, P48764]

Target: GRIP2_5, Q9C0E4
Sequence (Q9C0E4 544-642): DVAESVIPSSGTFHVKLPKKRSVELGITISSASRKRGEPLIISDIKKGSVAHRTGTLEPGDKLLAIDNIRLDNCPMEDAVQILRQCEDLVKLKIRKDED
Assay: holdup assay
Set-up: key: below the threshold = too weak to quantify, mostly under pKd 3.1 to 4
Conditions: plain residues with an end cap or a label only (N-terminal biotin on a linker: ado-ado)

pKd | Binder
below the threshold | PAALPESTHM [SLC9A3, P48764]

Target: T5, HTRA4, P83105
Assay: holdup assay
Set-up: key: below the threshold = too weak to quantify, mostly under pKd 3.1 to 4
Conditions: plain residues with an end cap or a label only (N-terminal biotin on a linker: ado-ado)

pKd | Binder
3.9 | PAALPESTHM [SLC9A3, P48764]

Target: IL16_1, Q14005
Sequence (Q14005 210-306): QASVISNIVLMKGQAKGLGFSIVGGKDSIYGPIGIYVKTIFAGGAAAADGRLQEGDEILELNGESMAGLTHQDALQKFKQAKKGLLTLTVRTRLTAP
Assay: holdup assay
Set-up: key: below the threshold = too weak to quantify, mostly under pKd 3.1 to 4
Conditions: plain residues with an end cap or a label only (N-terminal biotin on a linker: ado-ado)

pKd | Binder
below the threshold | PAALPESTHM [SLC9A3, P48764]

Target: IL16_4, Q14005
Sequence (Q14005 1229-1329): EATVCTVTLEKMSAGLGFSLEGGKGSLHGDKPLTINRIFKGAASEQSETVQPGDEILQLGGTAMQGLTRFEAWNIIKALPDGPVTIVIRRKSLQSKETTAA
Assay: holdup assay
Set-up: key: below the threshold = too weak to quantify, mostly under pKd 3.1 to 4
Conditions: plain residues with an end cap or a label only (N-terminal biotin on a linker: ado-ado)

pKd | Binder
below the threshold | PAALPESTHM [SLC9A3, P48764]

Target: Inadl_8, Q8NI35
Sequence (Q8NI35 1425-1530): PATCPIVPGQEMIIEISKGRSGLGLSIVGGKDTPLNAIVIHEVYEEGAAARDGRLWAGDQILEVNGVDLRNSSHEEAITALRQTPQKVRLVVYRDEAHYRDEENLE
Assay: holdup assay
Set-up: key: below the threshold = too weak to quantify, mostly under pKd 3.1 to 4
Conditions: plain residues with an end cap or a label only (N-terminal biotin on a linker: ado-ado)

pKd | Binder
below the threshold | PAALPESTHM [SLC9A3, P48764]

Target: LIMK2, P53671
Sequence (P53671 143-248): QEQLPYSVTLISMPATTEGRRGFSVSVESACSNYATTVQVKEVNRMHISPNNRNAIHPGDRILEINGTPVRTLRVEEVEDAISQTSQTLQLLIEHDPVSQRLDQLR
Assay: holdup assay
Set-up: key: below the threshold = too weak to quantify, mostly under pKd 3.1 to 4
Conditions: plain residues with an end cap or a label only (N-terminal biotin on a linker: ado-ado)

pKd | Binder
below the threshold | PAALPESTHM [SLC9A3, P48764]

Target: T6, LIN7B, Q9HAP6
Assay: holdup assay
Set-up: key: below the threshold = too weak to quantify, mostly under pKd 3.1 to 4
Conditions: plain residues with an end cap or a label only (N-terminal biotin on a linker: ado-ado)

pKd | Binder
below the threshold | PAALPESTHM [SLC9A3, P48764]

Target: T7, MPDZ_10, O75970
Assay: holdup assay
Set-up: key: below the threshold = too weak to quantify, mostly under pKd 3.1 to 4
Conditions: plain residues with an end cap or a label only (N-terminal biotin on a linker: ado-ado)

pKd | Binder
below the threshold | PAALPESTHM [SLC9A3, P48764]

Target: T8, NHERF3_1, Q5T2W1
Assay: holdup assay
Set-up: key: below the threshold = too weak to quantify, mostly under pKd 3.1 to 4
Conditions: plain residues with an end cap or a label only (N-terminal biotin on a linker: ado-ado)

pKd | Binder
5.37 | PAALPESTHM [SLC9A3, P48764]

Target: NOS1, P29475
Sequence (P29475 9-101): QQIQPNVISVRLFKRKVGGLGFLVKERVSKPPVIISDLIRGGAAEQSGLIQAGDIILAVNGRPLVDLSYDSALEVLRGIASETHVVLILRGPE
Assay: holdup assay
Set-up: key: below the threshold = too weak to quantify, mostly under pKd 3.1 to 4
Conditions: plain residues with an end cap or a label only (N-terminal biotin on a linker: ado-ado)

pKd | Binder
below the threshold | PAALPESTHM [SLC9A3, P48764]

Target: PARD3_3, Q8TEW0
Sequence (Q8TEW0 582-685): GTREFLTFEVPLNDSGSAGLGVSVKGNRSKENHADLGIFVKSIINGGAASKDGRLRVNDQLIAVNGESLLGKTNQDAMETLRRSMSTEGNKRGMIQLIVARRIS
Assay: holdup assay
Set-up: key: below the threshold = too weak to quantify, mostly under pKd 3.1 to 4
Conditions: plain residues with an end cap or a label only (N-terminal biotin on a linker: ado-ado)

pKd | Binder
below the threshold | PAALPESTHM [SLC9A3, P48764]

Target: PDLIM1, O00151
Sequence (O00151 1-87): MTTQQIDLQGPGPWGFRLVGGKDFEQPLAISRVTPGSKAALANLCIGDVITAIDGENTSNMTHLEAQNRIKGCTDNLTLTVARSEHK
Assay: holdup assay
Set-up: key: below the threshold = too weak to quantify, mostly under pKd 3.1 to 4
Conditions: plain residues with an end cap or a label only (N-terminal biotin on a linker: ado-ado)

pKd | Binder
below the threshold | PAALPESTHM [SLC9A3, P48764]

Target: T9, RAPGEF6, Q8TEU7
Assay: holdup assay
Set-up: key: below the threshold = too weak to quantify, mostly under pKd 3.1 to 4
Conditions: plain residues with an end cap or a label only (N-terminal biotin on a linker: ado-ado)

pKd | Binder
below the threshold | PAALPESTHM [SLC9A3, P48764]

Target: SCRIB_1, Q14160
Sequence (Q14160 718-814): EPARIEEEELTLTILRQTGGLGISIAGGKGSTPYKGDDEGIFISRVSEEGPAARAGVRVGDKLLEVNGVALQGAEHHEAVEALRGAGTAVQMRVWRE
Assay: holdup assay
Set-up: key: below the threshold = too weak to quantify, mostly under pKd 3.1 to 4
Conditions: plain residues with an end cap or a label only (N-terminal biotin on a linker: ado-ado)

pKd | Binder
3.57 | PAALPESTHM [SLC9A3, P48764]

Target: T10, SNTA1, Q13424
Assay: holdup assay
Set-up: key: below the threshold = too weak to quantify, mostly under pKd 3.1 to 4
Conditions: plain residues with an end cap or a label only (N-terminal biotin on a linker: ado-ado)

pKd | Binder
below the threshold | PAALPESTHM [SLC9A3, P48764]

Target: T11, SNTG1, Q9NSN8
Assay: holdup assay
Set-up: key: below the threshold = too weak to quantify, mostly under pKd 3.1 to 4
Conditions: plain residues with an end cap or a label only (N-terminal biotin on a linker: ado-ado)

pKd | Binder
below the threshold | PAALPESTHM [SLC9A3, P48764]

Target: T12, SNTG2, Q9NY99
Assay: holdup assay
Set-up: key: below the threshold = too weak to quantify, mostly under pKd 3.1 to 4
Conditions: plain residues with an end cap or a label only (N-terminal biotin on a linker: ado-ado)

pKd | Binder
below the threshold | PAALPESTHM [SLC9A3, P48764]

Target: T13, TIAM2, Q8IVF5
Assay: holdup assay
Set-up: key: below the threshold = too weak to quantify, mostly under pKd 3.1 to 4
Conditions: plain residues with an end cap or a label only (N-terminal biotin on a linker: ado-ado)

pKd | Binder
below the threshold | PAALPESTHM [SLC9A3, P48764]
